According to US20250002610A1 (Genmab, published 2025):

Assays:
[1] = molecular target: T1, human FAPα (Fibroblast activation protein alpha), cell surface expressed (human, UniProt Q12884 1-760); test: flow cytometry, human lung fibroblasts, n = 1
T1 construct: Endogenous on human lung fibroblasts and CAFs
T1 sequence: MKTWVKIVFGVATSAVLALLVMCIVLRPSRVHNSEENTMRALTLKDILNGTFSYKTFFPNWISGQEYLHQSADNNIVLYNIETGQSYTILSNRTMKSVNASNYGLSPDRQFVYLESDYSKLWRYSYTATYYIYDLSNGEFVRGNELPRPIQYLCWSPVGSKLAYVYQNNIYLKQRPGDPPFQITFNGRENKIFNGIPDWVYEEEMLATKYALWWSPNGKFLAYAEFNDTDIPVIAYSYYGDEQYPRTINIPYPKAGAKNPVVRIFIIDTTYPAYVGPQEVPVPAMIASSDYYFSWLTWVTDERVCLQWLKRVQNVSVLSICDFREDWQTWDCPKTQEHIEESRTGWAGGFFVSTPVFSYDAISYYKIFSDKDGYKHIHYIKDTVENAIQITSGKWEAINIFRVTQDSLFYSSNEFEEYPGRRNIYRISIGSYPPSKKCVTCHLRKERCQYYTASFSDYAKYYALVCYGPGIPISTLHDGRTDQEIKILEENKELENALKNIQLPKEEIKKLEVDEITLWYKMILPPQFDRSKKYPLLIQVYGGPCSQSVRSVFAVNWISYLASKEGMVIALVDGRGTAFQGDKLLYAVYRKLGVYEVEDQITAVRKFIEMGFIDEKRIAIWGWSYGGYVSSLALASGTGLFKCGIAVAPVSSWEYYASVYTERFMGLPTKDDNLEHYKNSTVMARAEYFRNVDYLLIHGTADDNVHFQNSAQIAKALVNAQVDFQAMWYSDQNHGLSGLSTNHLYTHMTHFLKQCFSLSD
Description: Human lung fibroblasts and CAFs (50,000 cells/well) were seeded in 96-Well round bottom plates (Greiner Bio-one, Cat #650101). Antibody dilutions were prepared using fluorescence-activated cell sorting (FACS) buffer, consisting of phosphate buffer saline (PBS, Lonza, Cat #BE17-517Q)+1% Bovine Serum Albumin (BSA, Roche, Cat #10735086001)+0.02% Sodium Azide (Bio-World, Cat #41920044-3). Plates were centrifuged, supernatant was removed, cells were resuspended in 50 μL of human Fc Block (BD, Cat #564220, diluted 1:100 in FACS buffer) and 50 μL of viability stain TO-PRO-3 Iodide (Thermo Fisher, Cat #T3605, diluted 1: 25,000 in FACS buffer), and incubated for 15 min at 4° C. Plates were washed three times with FACS buffer. Plates were centrifuged, supernatant was removed, cells were resuspended in 50 μL of antibody dilutions (concentration range 90-0.0005 μg/mL, three-fold dilution steps using FACS buffer) of BisG1-FAPα-FERL/DR4-FERR, BisG1-FAPα-FERL/b12-FERR, BisG1-b12-FERL/b12-FERR (top six concentrations only for CAFs culture) or IgG1-FAPα-FERL (top four concentrations only for CAFs culture) and incubated for 30 min at 4° C. Cells were washed three times with FACS buffer and resuspended in 50 μL of Fluorescein isothiocyanate (FITC)-labeled polyclonal antibody goat anti-mouse IgG1 (Jackson Immuno Research, Cat #109-096-097, diluted 1:100 in FACS buffer). After 30 min incubation at 4° C., cells were washed twice with FACS buffer and resuspended in FACS buffer. Antibody binding to viable cells (TO-PRO-3 negative) was analyzed by flow cytometry on a FACSCelesta™ (BD biosciences) and data were processed using FlowJo_v10.8.1 (FlowJo LLC). Geomean fluorescence intensity, gMFI, was determined and visualized using GraphPad Prism. Binding curves were analyzed using nonlinear regression analysis. The concentration (pg/mL) at which 50% of the maximal effect was observed (EC₅₀) was derived from the fitted curves.
Binding of FAPα-targeting monoclonal antibody clones, IgG1-FAPα-FEAL and IgG1-FAP5-FEAL, and bispecific antibodies carrying a binding arm derived from the two FAPα-binding clones (BisG1-FAPα-FEAL/b12-FEAR and BisG1-FAP5-FEAL/b12-FEAR) to human lung fibroblasts, which endogenously express FAPα, was compared and analyzed by flow cytometry.

[2] = molecular target: T2, FcγRIIa-R131 (CD32A Protein, Human, Recombinant (167 Arg, His & AVI Tag), Biotinylated) (human, UniProt P12318 34-218, limits assumed, biotinylated); test: SPR (Biacore 8K), His-tagged FcγRIIa-R131 captured on an anti-His chip, antibody as analyte, endpoint response against concentration
T2 construct: Bought reagent; not shown: His & AVI tag
T2 sequence (looked up): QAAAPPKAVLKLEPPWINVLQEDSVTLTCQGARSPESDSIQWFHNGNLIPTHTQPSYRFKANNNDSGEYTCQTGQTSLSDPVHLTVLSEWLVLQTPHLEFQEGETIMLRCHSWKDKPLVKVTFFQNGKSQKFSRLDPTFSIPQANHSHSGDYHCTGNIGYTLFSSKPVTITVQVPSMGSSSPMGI
Description: Binding of BisG1-FAPα-FERL/DR4-FERR to immobilized human His-tagged FcγRs and FcRn was analyzed by SPR using a Biacore 8K SPR system (Cytiva). To this end, anti-His antibodies were covalently immobilized on the surface of Biacore Series S Sensor Chip CM5 (Cytiva, Cat. #29104988) using the Amine Coupling Kit (Cytiva, Cat. #BR100050) and a His Capture Kit (Cytiva, Cat. #29234602) according to the manufacturer's instructions. To assess antibody binding to immobilized human FcγRs, aliquots of the recombinant His-tagged FcγR proteins (Table 24) were diluted in HBS EP+Buffer pH 7.4 (Cytiva, Cat. #BR100669) and used to capture the FcγR proteins on the surface of the anti-His antibody-coated sensors using a flow rate of 10 μL/min and a contact time of 60 s. Captured levels ranged from 434 to 592 RU. After three start-up cycles of HBS-EP+Buffer, concentration ranges of BisG1-FAPα-FERL/DR4-FERR or IgG1-b12 antibodies (Table 25) were injected to generate binding curves on FcγR-captured sensors (active surface). For each antibody sample, a parallel flow cell without captured FcγRs was included (reference surface), which was used for RU background correction.
All sensorgrams were subtracted by the signal of the third start-up cycle with buffer only (mock analyte). […]

B1: BisG1-FAPα-FEAL/b12-FEAR (bispecific antibody, human IgG1, kappa)
heavy 1: EVQLLESGGGLVQPGGSPRLSCEASGFTFSSYALSWVRQAPGKGLEWVSAISGSGGGRYYADSVKGRFTISRDNSKNTLFLQMNSLRAEDTAVYYCAKEGYSSSGTYWDHWGQGTLVTVSSASTKGPSVFPLAPSSKSTSGGTAALGCLVKDYFPEPVTVSWNSGALTSGVHTFPAVLQSSGLYSLSSVVTVPSSSLGTQTYICNVNHKPSNTKVDKRVEPKSCDKTHTCPPCPAPEFEGGPSVFLFPPKPKDTLMISRTPEVTCVVVAVSHEDPEVKFNWYVDGVEVHNAKTKPREEQYNSTYRVVSVLTVLHQDWLNGKEYKCKVSNKALPAPIEKTISKAKGQPREPQVYTLPPSREEMTKNQVSLTCLVKGFYPSDIAVEWESNGQPENNYKTTPPVLDSDGSFLLYSKLTVDKSRWQQGNVFSCSVMHEALHNHYTQKSLSLSPG
light 1: AIQMTQSPSSVSASVGDRVTITCRASQGVSSWLAWYQQKPGRAPKLLIYVASTLQSGVPSRFSGSGSGTDFTLTINSLQPEDFATYYCQQANSFPPTFGQGTRLEMKRTVAAPSVFIFPPSDEQLKSGTASVVCLLNNFYPREAKVQWKVDNALQSGNSQESVTEQDSKDSTYSLSSTLTLSKADYEKHKVYACEVTHQGLSSPVTKSFNRGEC
heavy 2: QVQLVQSGAEVKKPGASVKVSCQASGYRFSNFVIHWVRQAPGQRFEWMGWINPYNGNKEFSAKFQDRVTFTADTSANTAYMELRSLRSADTAVYYCARVGPYSWDDSPQDNYYMDVWGKGTTVIVSSASTKGPSVFPLAPSSKSTSGGTAALGCLVKDYFPEPVTVSWNSGALTSGVHTFPAVLQSSGLYSLSSVVTVPSSSLGTQTYICNVNHKPSNTKVDKRVEPKSCDKTHTCPPCPAPEFEGGPSVFLFPPKPKDTLMISRTPEVTCVVVAVSHEDPEVKFNWYVDGVEVHNAKTKPREEQYNSTYRVVSVLTVLHQDWLNGKEYKCKVSNKALPAPIEKTISKAKGQPREPQVYTLPPSREEMTKNQVSLTCLVKGFYPSDIAVEWESNGQPENNYKTTPPVLDSDGSFFLYSRLTVDKSRWQQGNVFSCSVMHEALHNHYTQKSLSLSPG
light 2: EIVLTQSPGTLSLSPGERATFSCRSSHSIRSRRVAWYQHKPGQAPRLVIHGVSNRASGISDRFSGSGSGTDFTLTITRVEPEDFALYYCQVYGASSYTFGQGTKLERKRTVAAPSVFIFPPSDEQLKSGTASVVCLLNNFYPREAKVQWKVDNALQSGNSQESVTEQDSKDSTYSLSSTLTLSKADYEKHKVYACEVTHQGLSSPVTKSFNRGEC
notes: Fab-arm exchange of IgG1-FAPα-FEAL and IgG1-b12-FEAR
With B1 the EC50 [1] was 0.048 µg/mL.

B2: IgG1-b12 (antibody)
heavy: not shown
light: B1 light 2
notes: HIV gp120 antibody b12 with wild-type IgG1 Fc; also called IgG-b12
B2: binds [2].
